# Data as given in US8709741B2, “Methods of diagnosing a plasmodium infection” (priority 2009, dated 2014).
# B1: X: recombinant human group X secreted phospholipase A2 (protein, UniProt O15496 43-165, looked up)
# Group 10 secretory …: GILELAGTVGCVGPRTPIAYMKYGCFCGLGGHGQPRDAIDWCCHGHDCCYTRAEEAGCSPKTERYSWQCVNQSVLCGPAENKCQELLCKCDQEIANCLAQTEYNLKYLFYPQFLCEPDSPKCD
# How the values were obtained:
# [1] = Specific activities of sPLA2s on human plasma (NEFA release, NEFA-C kit); format: biochemical
# Experimental: Kinetic analysis of human plasma hydrolysis by sPLA2s was performed by mixing on ice 50 μL of crude plasma with recombinant sPLA2s at various final concentrations (respectively 2×, 5× and 10× the IC50 value). At time zero, the mixture was transferred to 37° C. Samples (7 μL) were taken after 5, 15, 30 and 60 minutes of incubation and quickly frozen at −20° C. An aliquot of plasma without enzyme was similarly processed. Concentration of non-esterified fatty acids (NEFAs) in each sample was measured by a discontinuous enzymatic method using the NEFA-C test kit from WAKO, following manufacturer's instructions. The amount of NEFAs in each enzyme-containing plasma sample was subtracted for NEFAs in enzyme-free plasma sample. Specific activity for each of the sPLA2s was determined from the linear part of the curve [NEFA]=f(t). Experiment was repeated three times with plasmas from different donors and different batches of sPLA2s.
# Specific activities of sPLA2s on human plasma. Hydrolysis of plasma phospholipids by human and venom sPLA2s was assayed using different incubation times and enzymes concentrations. Hydrolysis was assessed by measuring the amount of NEFAs in samples using the colorimetric assay developed by WAKO (NEFA-C kit). Enzymatic production of NEFAs was corrected for endogenous production of NEFAs measured in the absence of sPLA2. Specific activity for each of the sPLA2s was determined from the linear part of the kinetic curve. Values are the mean of three independent experiments. SD: standard deviation. Anti-P. falciparum activities (IC50) of the respective sPLA2s are given for comparison.
# [2] = 48 h-hydrolysis of plasma by sPLA2s at IC50 concentrations (NEFA); format: biochemical, human; settings: GX 3 nM, GIIF full length or truncated 15 nM, bee venom 15 pM; 37° C.
# Experimental: Crude human plasma was incubated with 3 nM of recombinant human GX sPLA2 (⋄), 15 nM of the full length (▪) or truncated (□) recombinant human GIIF sPLA2, and 15 pM of the bee venom sPLA2 (♦), for 48 h at 37° C. Aliquots were taken at times 0 h, 6 h, 22 h, 30 h and 48 h of incubation. NEFAs in each aliquot were measured using the NEFA-C kit (WAKO);
# Crude human plasma was incubated with 3 nM of recombinant human GX sPLA2, 15 nM of the full length or the truncated form (IIFΔC) of recombinant human GIIF sPLA2, and 15 pM of the bee venom sPLA2, for 48 h at 37° C. Aliquots (7 μL) were taken at times 0 h, 6 h, 22 h, 30 h and 48 h of incubation. NEFAs were measured in each aliquot by using the NEFA-C kit (WAKO). Experiment was repeated twice with different plasmas.
# [3] = system: P. falciparum blood stages; assay: Sensitivity of the P. falciparum blood stages to GX sPLA2 (15 h treatment, re-invasion); format: cell-based; settings: 100 nM
# Experimental: A parasite culture was synchronised on a 4 h window. Parasites aged 0-4 h post-invasion (p.i.) (rings, R), 18-22 h p.i. (trophozoites, T), and 34-38 h p.i. (schizonts, S) were incubated for 15 h in culture conditions with (▪) or without (□) 100 nM recombinant GX sPLA2. Afterwards cells were washed and let grow in normal culture conditions until re-invasion. GX sPLA2 inhibitory activity on the complete parasite cycle was assessed by incubating 0-4 h p.i. parasites for 48 h with GX sPLA2 (cycle). Parasitaemia in each sample was determined from Diff Quick-stained smears. For each stage, 100% parasitaemia was established from parasite growth in the absence of enzyme;
# A parasite culture was synchronised on a 4 h-window. Parasites aged 0-4 h post-invasion (rings), 18-22 h post-invasion (trophozoites), and 34-38 h post-invasion (schizonts) were adjusted to 1% parasitaemia and 2% haematocrit in complete medium, and were then incubated in a 96-well plate in a candle jar at 37° C., with or without 100 nM of recombinant GX sPLA2. After 15 hours, cells were centrifuged at 900×g for 2 min, washed in RPMI and re-suspended at a 2% haematocrit in fresh complete medium for further growth. When re-invasion had occurred (P. falciparum invades new RBCs when its 48 hour-development cycle is completed), parasitaemia (%) in each well was determined from Diff Quick-stained smears. GX sPLA2 inhibitory activity on the complete parasite cycle was assessed by incubating rings with the recombinant enzyme for 48 hours.
# [4] = system: P. falciparum-infected erythrocytes; assay: Hydrolysis of serum-derived and Albumax II-derived parasite cultures (NEFA); format: cell-based, human; settings: 50 nM, 6 h, schizont-enriched culture
# Experimental: Parasites were grown in medium containing either 8% human serum (iRBC/S) or 0.5% Albumax II® (iRBC/A). Cultures were semi-synchronized so that they contain mainly mature parasites at the time of the experiment. Both cultures (2.5-3% parasitaemia) were then washed and cells were re-suspended at 50% haematocrit in RPMI 0.05% BSA with or without 50 nM of recombinant GX sPLA2, and incubated for 6 h in culture conditions. Non-infected RBCs (red blood cells) and human serum were processed similarly. Cell supernatants and serum were frozen at −20° C.; erythrocyte ghosts were prepared and frozen. NEFAs in each sample were measured in duplicate upon thawing, using the NEFA-C kit (WAKO). NEFA amount in healthy RBCs (RBC) and in infected cultures (iRBC) is expressed as the sum of NEFAs from paired ghosts and supernatants. Values are the mean of the duplicate measurement, subtracted for values in the absence of enzyme. The experiment was repeated twice and gave similar qualitative results. Results from one experiment are shown;
# Parasites were grown for several cycles in culture medium supplemented either with 8% human serum or with 0.5% Albumax II®. Cultures were semi-synchronized by Sorbitol treatment 2-3 days prior to the experiment. […] NEFAs were measured using the NEFA-C kit (WAKO). […]
molecule,measurement,setting,value
B1,activity on plasma relative to GIIF sPLA2,[1]; ratio of specific activities,9 times
same,activity on plasma relative to GV sPLA2,[1]; ratio of specific activities,30 times
same,Specific activity ± SD (μmol NEFA/min × mg enzyme),"[1]; whole human plasma, 37° C., linear part of kinetic curve, mean of three experiments",8.23 ± 0.92 μmol NEFA/min × mg enzyme
same,hydrolysis of plasma over 48 h,[2],the most active
same,re-invasion after treatment of rings,[3]; rings 0-4 h post-invasion,25%
same,schizonts that completed the cycle after treatment,[3]; schizonts 34-38 h post-invasion,less than 10%
same,trophozoites that completed the cycle after treatment,[3]; trophozoites 18-22 h post-invasion,less than 10%
same,NEFA release from Albumax II-derived versus serum-derived parasite culture,[4],released at the same rate
